{"source": "paper PMC10286367", "key": {"WB, cultured astrocytes": {"assay": "WB, cultured astrocytes", "conditions": "glycan lost; control: Ctrl astrocytes"}, "[1]": {"assay": "WB of total p65, cultured astrocytes", "conditions": "glycan lost; control: Ctrl astrocytes"}, "[2]": {"assay": "WB of cytoplasmic and nuclear fractions", "conditions": "glycan lost; control: Ctrl astrocytes"}, "IP-WB in N2a cells": {"assay": "IP-WB in N2a cells", "conditions": "glycan lost; control: wild-type p65-HA"}}}
{"protein": "NF-κB p65: Ogt cKO (protein) parent chain: MDDLFPLIFPSEPAQASGPYVEIIEQPKQRGMRFRYKCEGRSAGSIPGERSTDTTKTHPTIKINGYTGPGTVRISLVTKDPPHRPHPHELVGKDCRDGYYEADLCPDRSIHSFQNLGIQCVKKRDLEQAISQRIQTNNNPFHVPIEEQRGDYDLNAVRLCFQVTVRDPAGRPLLLTPVLSHPIFDNRAPNTAELKICRVNRNSGSCLGGDEIFLLCDKVQKEDIEVYFTGPGWEARGSFSQADVHRQVAIVFRTPPYADPSLQAPVRVSMQLRRPSDRELSEPMEFQYLPDTDDRHRIEEKRKRTYETFKSIMKKSPFNGPTEPRPPTRRIAVPTRNSTSVPKPAPQPYTFPASLSTINFDEFSPMLLPSGQISNQALALAPSSAPVLAQTMVPSSAMVPLAQPPAPAPVLTPGPPQSLSAPVPKSTQAGEGTLSEALLHLQFDADEDLGALLGNSTDPGVFTDLASVDNSEFQQLLNQGVSMSHSTAEPMLMEYPEAITRLVTGSQRPPDPAPTPLGTSGLPNGLSGDEDFSSIADMDFSALLSQISS", "values": [{"measurement": "other: p65 phosphorylation (p-p65 level)", "setting": "WB, cultured astrocytes", "value": "increases"}, {"measurement": "expression_or_secretion", "setting": "[1]", "value": "no change"}, {"measurement": "localisation_or_trafficking", "setting": "[2]", "value": "changes"}]}
{"protein": "NF-κB p65: S396A (protein) parent chain: MDDLFPLIFPSEPAQASGPYVEIIEQPKQRGMRFRYKCEGRSAGSIPGERSTDTTKTHPTIKINGYTGPGTVRISLVTKDPPHRPHPHELVGKDCRDGYYEADLCPDRSIHSFQNLGIQCVKKRDLEQAISQRIQTNNNPFHVPIEEQRGDYDLNAVRLCFQVTVRDPAGRPLLLTPVLSHPIFDNRAPNTAELKICRVNRNSGSCLGGDEIFLLCDKVQKEDIEVYFTGPGWEARGSFSQADVHRQVAIVFRTPPYADPSLQAPVRVSMQLRRPSDRELSEPMEFQYLPDTDDRHRIEEKRKRTYETFKSIMKKSPFNGPTEPRPPTRRIAVPTRNSTSVPKPAPQPYTFPASLSTINFDEFSPMLLPSGQISNQALALAPSSAPVLAQTMVPSSAMVPLAQPPAPAPVLTPGPPQSLSAPVPKSTQAGEGTLSEALLHLQFDADEDLGALLGNSTDPGVFTDLASVDNSEFQQLLNQGVSMSHSTAEPMLMEYPEAITRLVTGSQRPPDPAPTPLGTSGLPNGLSGDEDFSSIADMDFSALLSQISS", "values": [{"measurement": "other: p65 phosphorylation (p-p65 level)", "setting": "IP-WB in N2a cells", "value": "no change"}]}
{"protein": "NF-κB p65: Ogt KD (protein) parent chain: MDDLFPLIFPSEPAQASGPYVEIIEQPKQRGMRFRYKCEGRSAGSIPGERSTDTTKTHPTIKINGYTGPGTVRISLVTKDPPHRPHPHELVGKDCRDGYYEADLCPDRSIHSFQNLGIQCVKKRDLEQAISQRIQTNNNPFHVPIEEQRGDYDLNAVRLCFQVTVRDPAGRPLLLTPVLSHPIFDNRAPNTAELKICRVNRNSGSCLGGDEIFLLCDKVQKEDIEVYFTGPGWEARGSFSQADVHRQVAIVFRTPPYADPSLQAPVRVSMQLRRPSDRELSEPMEFQYLPDTDDRHRIEEKRKRTYETFKSIMKKSPFNGPTEPRPPTRRIAVPTRNSTSVPKPAPQPYTFPASLSTINFDEFSPMLLPSGQISNQALALAPSSAPVLAQTMVPSSAMVPLAQPPAPAPVLTPGPPQSLSAPVPKSTQAGEGTLSEALLHLQFDADEDLGALLGNSTDPGVFTDLASVDNSEFQQLLNQGVSMSHSTAEPMLMEYPEAITRLVTGSQRPPDPAPTPLGTSGLPNGLSGDEDFSSIADMDFSALLSQISS", "values": [{"measurement": "other: p65 phosphorylation (p-p65 level)", "setting": "HA IP-WB in N2a cells; glycan lost, control: control N2a cells", "value": "increases"}]}
{"protein": "NF-κB p65: S374A (protein) parent chain: MDDLFPLIFPSEPAQASGPYVEIIEQPKQRGMRFRYKCEGRSAGSIPGERSTDTTKTHPTIKINGYTGPGTVRISLVTKDPPHRPHPHELVGKDCRDGYYEADLCPDRSIHSFQNLGIQCVKKRDLEQAISQRIQTNNNPFHVPIEEQRGDYDLNAVRLCFQVTVRDPAGRPLLLTPVLSHPIFDNRAPNTAELKICRVNRNSGSCLGGDEIFLLCDKVQKEDIEVYFTGPGWEARGSFSQADVHRQVAIVFRTPPYADPSLQAPVRVSMQLRRPSDRELSEPMEFQYLPDTDDRHRIEEKRKRTYETFKSIMKKSPFNGPTEPRPPTRRIAVPTRNSTSVPKPAPQPYTFPASLSTINFDEFSPMLLPSGQISNQALALAPSSAPVLAQTMVPSSAMVPLAQPPAPAPVLTPGPPQSLSAPVPKSTQAGEGTLSEALLHLQFDADEDLGALLGNSTDPGVFTDLASVDNSEFQQLLNQGVSMSHSTAEPMLMEYPEAITRLVTGSQRPPDPAPTPLGTSGLPNGLSGDEDFSSIADMDFSALLSQISS", "values": [{"measurement": "other: p65 phosphorylation (p-p65 level)", "setting": "IP-WB in N2a cells", "value": "no change"}]}
{"protein": "NF-κB p65: OE-Ogt (protein) parent chain: MDDLFPLIFPSEPAQASGPYVEIIEQPKQRGMRFRYKCEGRSAGSIPGERSTDTTKTHPTIKINGYTGPGTVRISLVTKDPPHRPHPHELVGKDCRDGYYEADLCPDRSIHSFQNLGIQCVKKRDLEQAISQRIQTNNNPFHVPIEEQRGDYDLNAVRLCFQVTVRDPAGRPLLLTPVLSHPIFDNRAPNTAELKICRVNRNSGSCLGGDEIFLLCDKVQKEDIEVYFTGPGWEARGSFSQADVHRQVAIVFRTPPYADPSLQAPVRVSMQLRRPSDRELSEPMEFQYLPDTDDRHRIEEKRKRTYETFKSIMKKSPFNGPTEPRPPTRRIAVPTRNSTSVPKPAPQPYTFPASLSTINFDEFSPMLLPSGQISNQALALAPSSAPVLAQTMVPSSAMVPLAQPPAPAPVLTPGPPQSLSAPVPKSTQAGEGTLSEALLHLQFDADEDLGALLGNSTDPGVFTDLASVDNSEFQQLLNQGVSMSHSTAEPMLMEYPEAITRLVTGSQRPPDPAPTPLGTSGLPNGLSGDEDFSSIADMDFSALLSQISS", "values": [{"measurement": "other: p65 phosphorylation (p-p65 level)", "setting": "HA IP-WB in N2a cells; glycan gained, control: N2a cells without ectopic Ogt", "value": "decreases"}]}
{"protein": "NF-κB p65: S384A (protein) parent chain: MDDLFPLIFPSEPAQASGPYVEIIEQPKQRGMRFRYKCEGRSAGSIPGERSTDTTKTHPTIKINGYTGPGTVRISLVTKDPPHRPHPHELVGKDCRDGYYEADLCPDRSIHSFQNLGIQCVKKRDLEQAISQRIQTNNNPFHVPIEEQRGDYDLNAVRLCFQVTVRDPAGRPLLLTPVLSHPIFDNRAPNTAELKICRVNRNSGSCLGGDEIFLLCDKVQKEDIEVYFTGPGWEARGSFSQADVHRQVAIVFRTPPYADPSLQAPVRVSMQLRRPSDRELSEPMEFQYLPDTDDRHRIEEKRKRTYETFKSIMKKSPFNGPTEPRPPTRRIAVPTRNSTSVPKPAPQPYTFPASLSTINFDEFSPMLLPSGQISNQALALAPSSAPVLAQTMVPSSAMVPLAQPPAPAPVLTPGPPQSLSAPVPKSTQAGEGTLSEALLHLQFDADEDLGALLGNSTDPGVFTDLASVDNSEFQQLLNQGVSMSHSTAEPMLMEYPEAITRLVTGSQRPPDPAPTPLGTSGLPNGLSGDEDFSSIADMDFSALLSQISS", "values": [{"measurement": "other: p65 phosphorylation (p-p65 level)", "setting": "IP-WB in N2a cells", "value": "increases"}]}
{"protein": "NF-κB p65: S370A (protein) parent chain: MDDLFPLIFPSEPAQASGPYVEIIEQPKQRGMRFRYKCEGRSAGSIPGERSTDTTKTHPTIKINGYTGPGTVRISLVTKDPPHRPHPHELVGKDCRDGYYEADLCPDRSIHSFQNLGIQCVKKRDLEQAISQRIQTNNNPFHVPIEEQRGDYDLNAVRLCFQVTVRDPAGRPLLLTPVLSHPIFDNRAPNTAELKICRVNRNSGSCLGGDEIFLLCDKVQKEDIEVYFTGPGWEARGSFSQADVHRQVAIVFRTPPYADPSLQAPVRVSMQLRRPSDRELSEPMEFQYLPDTDDRHRIEEKRKRTYETFKSIMKKSPFNGPTEPRPPTRRIAVPTRNSTSVPKPAPQPYTFPASLSTINFDEFSPMLLPSGQISNQALALAPSSAPVLAQTMVPSSAMVPLAQPPAPAPVLTPGPPQSLSAPVPKSTQAGEGTLSEALLHLQFDADEDLGALLGNSTDPGVFTDLASVDNSEFQQLLNQGVSMSHSTAEPMLMEYPEAITRLVTGSQRPPDPAPTPLGTSGLPNGLSGDEDFSSIADMDFSALLSQISS", "values": [{"measurement": "other: p65 phosphorylation (p-p65 level)", "setting": "IP-WB in N2a cells", "value": "no change"}]}
